According to article PMC10470531, “RecJ3/4-aRNase J form a Ubl-associated nuclease complex functioning in survival against DNA damage in Haloferax volcanii” (mBio, 2023):

Columns and labels:
His6-RecJ3 (H. volcanii) [1] = molecular target: His6-RecJ3 (H. volcanii) (UniProt D4GVJ5); assay: SEC; HisTrap-bound, Strep-Tactin flow-through fractions from H. volcanii HJ07; Superdex 200 Increase 10/300 GL; 50 mM HEPES pH 7.5, 2 M NaCl, 1 mM DTT, 5 mM MnCl2, 5 mM MgCl2, 10% glycerol; fractions on reducing SDS-PAGE
His6-RecJ3 (H. volcanii) [2] = molecular target: His6-RecJ3 (H. volcanii) (UniProt D4GVJ5); assay: affinity purification with mass spectrometry; tandem affinity purification (HisTrap, then Strep-Tactin) of His6-RecJ3 and aRNase J-StrepII from H. volcanii HJ02-pJAM4252 against the empty vector; 2 M NaCl buffers; LC-MS/MS of the liquid fractions and AQUA-based MS/MS (SRM with heavy peptides) for the stoichiometry
[3] = molecular target: aRNase J-StrepII (H. volcanii) (UniProt D4GW49); assay: as above
[4] = molecular target: the molecule itself; assay: SEC; aRNase J-StrepII purified by Strep-Tactin from H. volcanii HS01-pJAM1406 (ΔrecJ3); Superdex 200 Increase 10/300 GL; 50 mM HEPES pH 7.5, 2 M NaCl, 1 mM DTT, 5 mM MnCl2, 10% glycerol; column calibrated with mass standards

Sequence of His6-RecJ3 (H. volcanii) (D4GVJ5 entry or part of it): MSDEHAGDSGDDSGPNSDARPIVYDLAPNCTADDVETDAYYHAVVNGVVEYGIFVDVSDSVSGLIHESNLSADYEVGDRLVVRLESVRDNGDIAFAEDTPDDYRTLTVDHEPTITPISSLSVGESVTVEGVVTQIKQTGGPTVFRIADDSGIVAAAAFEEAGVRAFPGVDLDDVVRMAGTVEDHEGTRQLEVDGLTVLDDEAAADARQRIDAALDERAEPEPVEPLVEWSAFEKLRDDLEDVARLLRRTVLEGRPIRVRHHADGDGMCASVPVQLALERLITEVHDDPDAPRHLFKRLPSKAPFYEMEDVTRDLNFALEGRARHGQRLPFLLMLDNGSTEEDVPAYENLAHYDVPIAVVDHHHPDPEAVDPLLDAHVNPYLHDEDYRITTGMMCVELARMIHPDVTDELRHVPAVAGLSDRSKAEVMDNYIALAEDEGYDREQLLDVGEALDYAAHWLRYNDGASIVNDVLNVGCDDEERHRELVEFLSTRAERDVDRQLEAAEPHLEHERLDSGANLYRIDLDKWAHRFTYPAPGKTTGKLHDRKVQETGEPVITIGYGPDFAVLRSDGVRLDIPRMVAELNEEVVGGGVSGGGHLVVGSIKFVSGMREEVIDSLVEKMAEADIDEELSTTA

stoichiometry N (RecJ4 per RecJ3) (His6-RecJ3 (H. volcanii) [1]) | stoichiometry N (RecJ4 per RecJ3) (His6-RecJ3 (H. volcanii) [2]) | stoichiometry N (RecJ4 per aRNase J) [3] | Molecule | stoichiometry N [4]
1 | 1 | 2 | RecJ4 (natural protein) | –
– | – | – | aRNase J-StrepII (natural protein, H. volcanii, UniProt D4GW49 1-450, looked up, archaeal RNase J of Haloferax volcanii, amplified with primers HVO_2724 NdeI and HVO_2724 KpnI; A homodimer when purified from the ΔrecJ3 mutant (SEC); in the RecJ3/4-aRNase J complex the stoichiometry is 2:2:1; also called aRNase J with a C-terminal StrepII tag; aRNase J homodimer; source: H. volcanii H26- or HS01-pJAM1406, HJ02-, HJ04- or HJ07-pJAM4252, in lysate; purified (Strep-Tactin, SEC); …) MEIEIATIGGYEEVGRQMTAVRAGDDVVVFDMGLNLSQVLIHDNVETEKMHSLDLIDMGAIPDDRVMSDLEGDVQAIVPTHGHLDHIGAISKLAHRYDAPVVATPFTIELVKQQIEGENKFNVNNDLVKMEAGETMSIGDSGNVELEFVHVTHSIIDAINPVVHTPEGAVVYGLDKRMDHSPVLEDPIDMKRFREIGREGNGVLAYIEDCTNAGRKGRTPSESVARRHLKDVMTSVEDYDGGIVATTFSSHISRVSSLVEFAKDIGRQPVLLGRSMEKYSGTAERLGFVDLPDDLGMYGHRKSVDRTFKRIMKEGKENYLPIVTGHQGEPRAMLTRMGRGETPYEIDDGDKVIFSARVIPEPTNEGQRYQSERLLRMQGARIYDEIHVSGHLREEGHYEMLQALQPQHVIPAHQNLKGFAPYVDLAESQGYALGRDLHVTRNGNMIQLVE | 2
